This data set in a line: label from the status in PepcDB records.

The results in this text go back to a protein production outcome set (Wang et al. 2014).
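Further: failed if final PepcDB status was selected cloned or expressed and not failed if soluble or beyond.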

Turning to “AESESFVLDFSQPSADYLDFRNRLQADHVCLENCVLKDKAIAGTVKVQNLAFEKTVKIRMTFDTWKSYTDFPCQYVKDTYAGSDRDTFSFDISLPEKIQSYERMEFAVYYECNGQTYWDSNRGKNYRIIRAELKSTQGMTKPHSGPDLG”, the protein production entry is “not failed”.
Regarding “AGSATITYSVLEETDRGSLVGNLAKDLGLSLRELITRGAQILSKGNKQLLQLEQKSGNLLLKEKLDREELCGSTNPCILHFQVLLKSPVQFIQGEIQLQDVNDHAPEFMEDE”, the protein production entry is listed as “not failed”.
As to “AHARLQITQFAMDSVGIGIQWIDPDSGRFVYANRHTAELLGYSEQEMLTLTVSDIDPAFPLPAFHATMARLRQSRYTQFQSQIETRGGVPIPVEITLYYMEGDADAPARVIAFLTDISRRKETEQTLVQAKEAAEKANLAKTAFVANMSHEIRTPMNAILGMV”, the protein production result was “failed”.
On to “AHNLALGAHGEDLAARYLTEAGMEIVDRNWRSRYGEVDLIAAEGDWLVFVEVKTRRGLGYGSPAEAVTFSKQRRIRLLAVEWLRDSGRHWSRVRFDVVAIMIGHGPQPQIEHVRD”, for which the protein production result was “failed”.
Under “AHQYGVKSYIGIPRSYSHDRTDFMQSEQAEILYYDGKYEETVEFIRDFSKDNGLYDASPGSANSSIDKMMYATIAFEIYEALLTVPSYVIVPVGNGTTLAGIYHGFRRMYDEGVIDHLPRMVGVSTSGGNPIVDSWRHGYSRVVDLNPEEIRETSINEPLVSYRSFDGQDALSAIRETHGRAMYVSDEEMVYYSNLIYSAEGLNPLPASASAVAAIGHLKVKQDETVVSVITGRQI” stands “failed”.
For the sequence “AIAAQTERRDAPELPDFSLLKRLARDQLIFLLEQLPGKKDLFIDADLMSPLDRIANVTILKQHEVDKLYKVELKPIVSSSDQLCFLIRPRIQTVKWISDLVNSDKVAGRFRRYKIIFTPQKFYACETVLEEQGVYGDVTTDEWNFYILPLDDDILSLELPEFFRDNFLEGDQRWVTTGGGALHLLQSVYGSFSKVYGIGRCAKMVYESWRELMEEGEQRTRQPEFAKVFLIDRDVDFVTPLCSQVVYEGLVDDIFRIKCSSVEFGPDVTSSDKSIKVMLNSQDKVFNEIRNEHFSNVFGFLSQKAKNLQTAYDKRRGMDIQQMKAFVADELKGLKQEHRLLSLHIGASESIMKKKTKQDFQELLKTEHSLLEGFEIRECIAYIEEHINRQVSMIDSLRLLCLLSITENGLLSKDYRSLKAQYLQSYGIEHLLTFANLRQLGLLEEQQTGETLTVMESKVGKLVNDKTAGKLTDAFSSLAKKSNFRALSKRLALVPKSGEEYDLRVPRDMAYIFSGAYIPLSCKLIEQVLERDGWTGLEEVTRMLNGQDFAVTGGSSSSEARNKSNGQRIILVMFLGGCTYSEISALRFLGKERGCRFIVLTTAITNSGRLLEALLDKHV”, the protein production result was “failed”.
For “AIARSEWPFDYASEADAMLHRITPENFEKLVRFAARLLRVGEIIALPTDTVYGLAAAARNSHGIELLYQTKQRDLRKPLAIAVPSVEDVSVYLHTEHLPPGLLEAILPGPLTLLLRQREDYVGIDLQDVRIDQYRGWERAKRLAPNLNLRRDGLLGVRVPDASFACAVSRELGDPLALTSANVSGRGDCGSVDEFRALWSACAAVFDGGAMPKPVMPSTVVDLSVPGTFRITRAGWMATDLVRILENKFGLTNKSANTSN”, the protein production result is reported as “failed”.
As to “AIASRAASLRAELTSLANAFEEERISSAERLDADLVRQAVEQAKPENLEQWKQVVHDATAKLQQFWEDSEQALIRETYALATSYLRESDDEVHRLQMTKKALEEQLETERRRSTRIEEQLAALQSRLLDSAAPAATTPADDARTQQEVLRSELQGFMQELVRNQRESLRVLQEELQRVREEASVREENLLRQIAHLKTELAVARTDNEVSSRQLRQLETSAGREEVQDELGPGTIWPPHLTPRRGHRRFQRHNRLEDAPAPPEF”, the protein production entry is listed as “failed”.
“AIAVSPLKTRCCSPSSQQQASEAREIEQPSTVWELDFYSRPVYGKDNKRIWELIVVDESFLLCHVESVPNDMINSAELRKRVERLLEQVTVKPKVVKFSRMPMFNMISLALKDLGFEVKPSRRTYRLYHVLRDREANIYSKMPGYRSENTLSTSYLYSTERLPDALRGEKFAFCTADYSFLYELQSSDTIPYCDIFNTGDSILLEKELPGIIVYSERADSLASWTAGAEVSFIKFREEELELVLECGINSHYRLAKIAEDHRLVEEAKTFEQMKWHMKGFHFYAIQSLKETSGTSHIKGLWLLNDFMEQ”: the protein production result is given as “not failed”.
“AITLTCDEIEQAFLHDHIFNYYQPQFDFRSGAMVGVEALVRYEHPTHGMLSPAVFLPLIEQCGLHEKLFLTVLEKSVSALASIGADLQLSVNISQRNLQHSICDPILAICERYGFPASKLTLEMTEHEVYNGTPTSLANLARLRMYGVGLSIDDFGTGYASLGQLAQLPFTELKIDRSFVHDLATNYKHQQLTNMCLLLAQSLGLHCVVEGVENEETWQYLRQLGVDTCQGYYAAKP”: the protein production entry is reported as “failed”.
Turning to “ALIAGHFADPFSVLGMHRTDAGLEVRALLPDATDVWVIEPKTGRKVGKLECLDSRGFFSGVLPRRKNAFRYQLAVTWHGQQNLIDDPYRFGPLLQ”, the protein production result is recorded as “failed”.
To “ALKLMQYIGDAIGTIRDPQELFRTVTDKLRLLFAFDSAVIITIDRERREASVFFEMLRFELPEQLRHQTRSIAGTWLEGHLDDRTVTVASIARDIPSFGADGAPLLWTLHELGMRQIVLSPLRSGGRVIGFLSFVSAEEKLWSDGDKSLLSGVSSSIAIAVSNALAYEELRQRE” belongs “not failed”; to “ALQDRTQFSDRDLATLKKYWDNGMTSLGSVCREKIEAVATELNVDCEIVRTWIGNRRRKYRLMGIEV”, “not failed”.
As for “ALYNVDAGHRAVIFDRFRGVQDIVVGEGTHFLIPWVQKPIIFDCRSRPRNVPVITGSKDLQNVNITLRILFRPVASQLPRIFTSI”, the protein production entry is “failed”.
For “ANTSGKDGTTVVIGESKSDHVIHLYEDPRCPGCAAMEQSIGETVNKGMEDGDYKLSFTVGTFLDGNLGGEGSKNALSALGAALNVSPEAFVDYKTALYSTKYHPEESTDEFAKDDYLIKVADSVDALKGNKKFQDAVEKGTYDAWAMRMSKSFDKAEGVESTPTIKINDKVVETPSTPDAWQKALKDAGVTK”, the protein production entry was “failed”.
As for “APAEPAAPKSGEAETPPKHPGVLKVEAILEKVQGLEQAVDSFEGKKTDKKYLMIEEYLTKELLALDSVDPEGRADVRQARRDGVRKVQTILEKLEQKA”, the protein production entry is “not failed”.
In the case of “APEWTEEDLSQLTRSMVKFPGGTPGRWEKIAHELGRSVTDVTTKAKQLKDSVTCSPGMV”, the protein production result is given as “not failed”.
In the case of “APKTFMFGVSKVEEPKTVSFGTGIKETTATSSTEATAPTPAAAAPAPVQFVFKAPTTATTASSLTTTISTTSNAPALGGFSFGAPSSSSTVSSSTTSTSANPAAVKPMFSWSGAGSAVSSTSSSQQPVAKAPTLGFGVSSSTVTTTTTSTKVFAFTPASGLDPAAATSAPAAGAGFSFGSQSKPATTQNTGTFFFGQPTAVAPATPTNPSVSSIFGAPATSTTASTSVSATTSTSTANAIASSFAPTSTPQLFGNWGEKKTDLTTFGASSGSGTTTTPSFGWSSNGDAAKSNSAAVGSAAVPSSSASTMATPIFGSSSMFGPSSSSNNTTSTSTTSLPFGSAATTAATTPAGGNAALTGLFGNVGNSLAGVGAPVATTPAATAAAPLTNIFGNPTPVAAAAPVFGSGSTIPSAGFGAPAAAAPLAAPALPGAFN”, the protein production entry was “failed”.
Under “APLPVIFIPGIMGTNLRNKADKSEVWRPPNGLWPMDDLFASIGALWTWAWRGPKARQELLKAEQVEVDDQGTIDVGQSGLSEEAARLRGWGKVMRSAYNPVMGLMERRLDNIVSRRELQAWWNDEALSPPGDQGEEQGKVGPIDEEELLRASRYQFDVWCAGYNWLQSNRQSALDVRDYIENTVLPFYQKECGLDPEQMRRMK” stands “failed”; under “APRSVAMVVPQGSDIRQLSDLRGKRIALNKGSNVHWLLLQILEDAGLGLNDVRVVYTPPKYPLTASDYLAVDAWMMWDPLLSDAEHTGELRVVASGEGRVNNHQFYLSRRDYLAQHGDIMRRLLTELTHTGQFIDSHRGEAARLLSAELGI”, “failed”; under “AQAALEASEEKFAKAFHSSPDSITITEIESGRYVEVNDGFCRLTGFSAREVLGRTAHEIGIWTDTVQREFMIDELRQKGRMHHREMNGRDKKGAPLVLDVSVEFITLNNTACLLMNARDIG”, “failed”.
As to “AQELAHKINHIVASRPATAAMLQEIAHLVGTATNVDCCCLVTVTNEESTETTTANWCSDEFLGVPLSNEMFSTERFLMELPVLQCAVEPRNIDEISIIRNSLVVGCQHLPLPIKAVLAISTRFGGKTNGVISLIKFQSHDWDDSAKNILKTIEASCAIAFSQLTQAQLISSQQQHLQ”, the protein production entry is “failed”.
Under “AQIPQQIKGVICINAGGGIYLKEAFEQFRVAGQRFLQVRPRWLSQVPLIDLLFTRASVSRPLDRQWARQRVIDFVVADPEAALGALLDSTTEDEVNRLPKLVSQLKQPVYFLAGTDDKVMEPKYVRHLASFHPLFQYCGDNVIEIPDCGHLAMLEQPDAVASHIKSLV” stands “failed”; under “ARDPAKLKQVAGQPRLREAVIRLMRGTDVIRVKMYALNGITLFSTDASQIGEDESDDDGFRSAAAGTPASELAHNHSIDAFERTLTDRDIISTYVPVHDPAGKIEGVLEIYLDATPFVADSDQQ”, “failed”; under “ARFMAVSSELKDDTRTYTVAGQVFFASSDRFMSHFDFREAVERVVIDVTHAHFWDITSVSALDRVVIKFRREGTEVEIKGMNDATRTLVDRFGVHDKPEEVEKLMGGH”, “not failed”.
To “ARFYSDGLKLAGTLFVPDDYEPGQKRPAVLICHGRFAIKEWVPSRWTPHFLAAGYVCMVFDYRNLGESEGTPGRIIPDEEVRDARHALTYLQCQPEVDPARIGALGWGLGGGVAVSAAAHDARIKAVVCAIGVANGGRYGRVGMSDAAWAARQEQIAADRRERVLTGRSARLPRTEILGRPDAQRAERHERQNWIDSLVAAVGPERAADPAKLGIPDEITLESMEALYDFAPDAVVDRIAPRPLLIVHARDDHEFPFEHAADMYERAAQPKQLIAVEDAGHLDWIDPAHPSQQVYVPQVVAWMQAQL” belongs “not failed”; to “ARPCIPKSFGYSSVVCVCNATYCDSFDPPTFPALGTFSRYESTRSGRRMELSMGPIQANHTGTGLLLTLQPEQKFQKVKGFGGAMTDAAALNILALSPPAQNLLLKSYFSEEGIGYNIIRVPMASCDFSIRTYTYADTPDDFQLHNFSLPEEDTKLKIPLIHRALQLAQRPVSLLASPWTSPTWLKTNGAVNGKGSLKGQPGDIYHQTWARYFVKFLDAYAEHKLQFWAVTAENEPSAGLLSGYPFQCLGFTPEHQRDFIARDLGPTLANSTHHNVRLLMLDDQRLLLPHWAKVVLTDPEAAKYVHGIAVHWYLDFLAPAKATLGETHRLFPNTMLFASEACVGSKFWEQSVRLGSWDRGMQYSHSIITNLLYHVVGWTDWNLALNPEGGPNWVRNFVDSPIIVDITKDTFYKQPMFYHLGHFSKFIPEGSQRVGLVASQKNDLDAVALMHPDGSAVVVVLNRSSKDVPLTIKDPAVGFLETISPGYSIHTYLWHRQ”, “not failed”.
Take “ASDFQTGIHKIVIQQSGDTDSFEVSVSIGGADKGGPAKLYNDKGEYIGDSYSAQIRTATMSCCTNGNAFFMTCAGSVSSISEAGKRLHITVIGYIDDKEVNRLEKEYITDGNTLIETFSVSTKEI”: the protein production result is recorded as “not failed”.
In the case of “ASDSAFTYNGVSITRPTNEVNDVISGVNITLEQTTEPNKPAIISVSRDNQAIIDSLTEFVKAYNELIPKLDEDTRYDADTKIAGIFNGVGDIRAIRSSLNNVFSYSVHTDNGVESLMKYGLSLDDKGVMSLDEAKLSSALNSNPKATQDFFYGSDSKDMGGREIHQEGIFSKFNQVIANLIDGGNAKLKIYEDSLDRDAKSLTKDKENAQELLKTRYNIMADVLPLMIAKSLKPIKNSIPCK”, the protein production result is “failed”.
